Results published in PMC9569322, “Determination of the boundary lipids of sticholysins using tryptophan quenching” (Scientific Reports, 2022).
Where a chain is given by its changes, count along the chain named. Numbers in names are those of the source.

B1: Sticholysin I (StnI), wild type (natural protein, Stichodactyla helianthus, UniProt P81662 1-176, looked up)
chain: SELAGTIIDGASLTFEVLDKVLGELGKVSRKIAVGIDNESGGTWTALNAYFRSGTTDVILPEVVPNTKALLYSGRKSSGPVATGAVAAFAYYMSNGNTLGVMFSVPFDYNWYSNWWDVKIYPGKRRADQGMYEDMYYGNPYRGDNGWYQKNLGYGLRMKGIMTSAGEAKMQIKISR
notes: Sticholysin I (StnI), actinoporin of the sea anemone Stichodactyla helianthus; also called StnI WT; source: E. coli RB791, purified to homogeneity
B2: Sticholysin II (StnII), wild type (natural protein, Stichodactyla helianthus, UniProt P07845 1-175, looked up)
chain: ALAGTIIAGASLTFQVLDKVLEELGKVSRKIAVGIDNESGGTWTALNAYFRSGTTDVILPEFVPNTKALLYSGRKDTGPVATGAVAAFAYYMSSGNTLGVMFSVPFDYNWYSNWWDVKIYSGKRRADQGMYEDLYYGNPYRGDNGWHEKNLGYGLRMKGIMTSAGEAKMQIKISR
notes: Sticholysin II (StnII), actinoporin of the sea anemone Stichodactyla helianthus; also called StnII WT; StnII-WT; source: E. coli RB791, purified to homogeneity
B3: StnI-I7C/K68C^ox (oxidized double-Cys mutant of sticholysin I) (natural protein, Stichodactyla helianthus, UniProt P81662 1-176, looked up)
chain: B1 chain with I7C, K68C
modifications: disulfide bridge between C7 and C68 (oxidized form)
notes: Sticholysin I (StnI) of Stichodactyla helianthus with I7C and K68C, made by site-directed mutagenesis; the disulfide holds the N-terminal alpha-helix on the beta-sandwich; Used oxidized; also called StnI CC; source: E. coli RB791, purified to homogeneity
B4: StnII-I6C/K67C^ox (oxidized double-Cys mutant of sticholysin II) (natural protein, Stichodactyla helianthus, UniProt P07845 1-175, looked up)
chain: B2 chain with I6C, K67C
modifications: disulfide bridge between C6 and C67 (oxidized form)
notes: Sticholysin II (StnII) of Stichodactyla helianthus with I6C and K67C, made by site-directed mutagenesis; the disulfide prevents the deployment of the N-terminal alpha-helix; Used oxidized; also called StnII CC; source: E. coli RB791, purified to homogeneity

Molecular target: the molecule itself
Test: cross-linking

Row | Protein | binding result
1 | B1 | binds
2 | B2 | binds
3 | B3 | binds
4 | B4 | binds
